Here are results for two molecules from patent US20240166720A1 (Janssen / Centocor, published 2024).

Experiment [1] addresses native CD40 receptor on HEK-Blue CD40L reporter cells (UniProt P25942 21-277, limits assumed). In words: cell-based or functional assay.
Experiment [2] concerns the target T1, recombinant CD40 receptor (hu CD40) (human, UniProt P25942 21-193, limits assumed, biotinylated in the MSD assay (site not stated)).
T1 construct: also called biotinylated CD40
Kind of experiment: MSD electrochemiluminescence plate assay: biotinylated CD40 (10 ug/ml) on streptavidin plates, three-fold dilutions of the test article, anti-human Fc detection (Example 4). As to the method: Streptavidin sensor plates were coated with 10 ug/ml of biotinylated CD40 overnight at 4° C. The plates were washed 3× with PBS with 0.05% Tween 20 (PBST). Three-fold dilutions series of the test articles were prepared in PBS with 0.2% bovine serum albumin and 50 ul was applied to the plates for 1 hour at RT with shaking. Plates were washed 3× with PBST and anti-human Fc detection reagent at 2 ug/ml final concentration was applied for 1 hour at RT with shaking. The plates were washed 3× with PBST and 150 ul of 1× read buffer was added to the plates and data was collected on MSD instrument. Data was imported into […] Prism 8 software and analyzed and plotted based on the results three separate experiments.

T1 sequence (P25942 21-193 limits assumed): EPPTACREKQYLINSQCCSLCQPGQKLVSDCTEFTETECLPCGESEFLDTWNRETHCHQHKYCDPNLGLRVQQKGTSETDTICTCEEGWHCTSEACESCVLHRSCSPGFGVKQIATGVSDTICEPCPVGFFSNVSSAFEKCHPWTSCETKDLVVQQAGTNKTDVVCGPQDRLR
Chain of native CD40 receptor on HEK-Blue CD40L reporter cells (P25942 21-277 limits assumed): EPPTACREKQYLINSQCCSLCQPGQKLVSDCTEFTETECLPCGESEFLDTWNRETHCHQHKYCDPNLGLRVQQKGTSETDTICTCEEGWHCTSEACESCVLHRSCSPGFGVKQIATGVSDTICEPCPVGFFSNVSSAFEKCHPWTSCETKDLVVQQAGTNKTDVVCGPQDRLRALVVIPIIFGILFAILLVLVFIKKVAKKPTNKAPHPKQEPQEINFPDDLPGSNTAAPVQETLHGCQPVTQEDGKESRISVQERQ

B1: TPP000182983 (Fc fusion)
chain: HTCPPCPAPEAAGGPSVFLFPPKPKDTLMISRTPEVTCVVVSVSHEDPEVKFNWYVDGVEVHNAKTKPREEQYNSTYRVVSVLTVLHQDWLNGKEYKCKVSNKALPAPIEKTISKAKGQPREPQVYTLPPSREEMTKNQVSLTCLVKGFYPSDIAVEWESNGQPENNYKTTPPVLDSDGSFFLYSKLTVDKSRWQQGNVFSCSVMHEALHNHYTQKSLSLSPGGGGGSNPQIAAHVISEASSKTTSVLQWAEKGYYTMSNNLVTLENGKQLTVKRQGLYYIYAQVTFCSNREASSQAPFIASLCLKSPGRFERILLRAANTHSSAKPCGQQSIHLGGVFELQPGASVFVNVTDPSQVSHGTGFTSFGLLKLGGGSGGGSGGGSNPQIAAHVISEASSKTTSVLQWAEKGYYTMSNNLVTLENGKQLTVKRQGLYYIYAQVTFCSNREASSQAPFIASLCLKSPGRFERILLRAANTHSSAKPCGQQSIHLGGVFELQPGASVFVNVTDPSQVSHGTGFTSFGLLKLGGGSGGGSGGGSNPQIAAHVISEASSKTTSVLQWAEKGYYTMSNNLVTLENGKQLTVKRQGLYYIYAQVTFCSNREASSQAPFIASLCLKSPGRFERILLRAANTHSSAKPCGQQSIHLGGVFELQPGASVFVNVTDPSQVSHGTGFTSFGLLKL
notes: Single chain trimeric CD40L fused to the C-terminus of the Fc; also called C4LW16
Regarding B1, the “HEK-Blue reporter assay activity, fold against TPP000161222” value in experiment [1] is 100 fold. In addition, in experiment [2], the 50% effective concentration (EC50 (read off the curve)) – broadly, the concentration needed to bring the measured effect to its halfway point – was ~0.09 µg/mL.

B2: TPP000161222 (Fc fusion)
chain: IAAHVISEASSKTTSVLQWAEKGYYTMSNNLVTLENGKQLTVKRQGLYYIYAQVTFCSNREASSQAPFIASLCLKSPGRFERILLRAANTHSSAKPCGQQSIHLGGVFELQPGASVFVNVTDPSQVSHGTGFTSFGLLKLEGKSSGSGSQIAAHVISEASSKTTSVLQWAEKGYYTMSNNLVTLENGKQLTVKRQGLYYIYAQVTFCSNREASSQAPFIASLCLKSPGRFERILLRAANTHSSAKPCGQQSIHLGGVFELQPGASVFVNVTDPSQVSHGTGFTSFGLLKLEGKSSGSGSQIAAHVISEASSKTTSVLQWAEKGYYTMSNNLVTLENGKQLTVKRQGLYYIYAQVTFCSNREASSQAPFIASLCLKSPGRFERILLRAANTHSSAKPCGQQSIHLGGVFELQPGASVFVNVTDPSQVSHGTGFTSFGLLKLVERKSCVECPPCPAPPVAGPSVFLFPPKPKDTLMISRTPEVTCVVVDVSHEDPEVQFNWYVDGVEVHNAKTKPREEQFNSTFRVVSVLTVVHQDWLNGKEYKCKVSNKGLPAPIEKTISKTKGQPREPQVYTLPPSREEMTKNQVSLTCLVKGFYPSDIAVEWESNGQPENNYKTTPPMLDSDGSFFLYSKLTVDKSRWQQGNVFSCSVMHEALHNHYTQKSLSLSPGK
notes: This protein had only 38.76% monomer after protein A; also called C40W33; JNJ75347415
As for B2, the binding result in experiment [2] is on record as “binds”.
